Laboratory results: patent publication WO2010064456A1

Molecular target: T1, rhNR10 (human) (UniProt Q8NI17)
T1 sequence (looked up): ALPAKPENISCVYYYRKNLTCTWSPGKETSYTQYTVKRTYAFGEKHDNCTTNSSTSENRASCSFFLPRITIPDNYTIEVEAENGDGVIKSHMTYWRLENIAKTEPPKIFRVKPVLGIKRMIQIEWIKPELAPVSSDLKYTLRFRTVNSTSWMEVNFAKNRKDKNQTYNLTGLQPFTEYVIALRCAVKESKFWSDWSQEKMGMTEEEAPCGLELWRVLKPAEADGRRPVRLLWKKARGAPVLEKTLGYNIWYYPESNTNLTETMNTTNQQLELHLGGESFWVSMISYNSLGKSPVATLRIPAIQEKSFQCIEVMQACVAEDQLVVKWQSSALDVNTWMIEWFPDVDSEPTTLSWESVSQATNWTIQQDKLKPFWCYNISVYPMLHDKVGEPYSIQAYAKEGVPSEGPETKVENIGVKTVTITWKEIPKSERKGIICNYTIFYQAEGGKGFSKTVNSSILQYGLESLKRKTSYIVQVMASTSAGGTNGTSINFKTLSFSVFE
Experiment: SPR (Biacore T100), antibody captured on Protein A, rhNR10 as analyte; reference H0L0 (H0-M58/L0)

B1: H0L12 (H chain H0-M58, L chain L12) (antibody, V domains shown)
VH: QVQLVQSGAEVKKPGASVKVSCKASGYTFTGYIMNWVRQAPGQGLEWMGLINPYNGGTSYNQKFKGRVTITADESTSTAYMELSSLRSEDTAVYYCARDGYDDGPYTMDYWGQGTLVTVSS
VL: DIQMTQSPSSLSASVGDRVTITCQTSEDIYSFVAWYQQKPGKAPKLLIYNAQTEAQGVPSRFSGSGSGTDFTLTISSLQPEDFATYYCQHHYDSPLTFGGGTKVEIKR
Q: Which fold affinity against H0L0 does the source give for B1 here?
A: 2 fold
